Data set [1] in a line: folding stability dG unfold (combined trypsin and chymotrypsin); higher = more stable. An outline of the steps: (§1)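 Unfolding free energy was derived, per protease or combined, by relating Bayesian-fitted K50 values from sequencing counts to a sequence-predicted unfolded-state K50 and a shared folded-state K50. The underlying digests exposed cysteine-free mini-proteins under 80 residues, in a PA-tagged cDNA display construct, to trypsin and chymotrypsin at 11 threefold-diluted concentrations and to a no-protease condition. A filter kept only designs with AlphaFold2 dimer inter-PAE above 15.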

The nature of data set [2]: folding stability dG unfold from trypsin proteolysis; higher = more stable. An outline of the steps: as §1
The nature of data set [3]: folding stability dG unfold from chymotrypsin proteolysis; higher = more stable. An outline of the steps:
as §1

± gives the half width of the 95% confidence interval.

For “SMKPNEKFPSLEEVKEAAKRIAEEIEKKTGKKIEVEVKVETVKKEDGKEVVKITIVDKKTKKVIKEIEIKSA [r9_794_TrROS_Hall]”, the “folding stability dG unfold” value in data set [1] is 6.61 ± 0.502 kJ/mol; in data set [2] it was 9.11 ± 0.402 kJ/mol; in data set [3], 3.27 ± 0.318 kJ/mol.
The like results for “SMKPYVYTHPEGITIPMFVLPDGTIKIEVTAFDPNNPVPLGKATATMDPATGTLNLTLPNGTSLSYTIPASA [r9_56_JUSTAS]” were, in that order, 10.5 ± 0.669 kJ/mol, 10.3 ± 0.272 kJ/mol and 10.3 ± 0.418 kJ/mol.
The like results for “SMKSKISEIKSVEKKGNKVVVKVKIKAPKGKAYFIDSNGNIIKEVNLGKEVELEITFDSNNESFKVIVTDSA [r9_917_TrMRF]” were, in that order, 7.68 ± 0.414 kJ/mol, 5.59 ± 0.272 kJ/mol and 8.32 ± 0.134 kJ/mol.
With “SMKVEKLEDGTYIIVNEDGSITEIKVYPDKVEVKTYPVLYKMPDGRWFETKEEAEKFEEETGVPILEEDLSA [r9_660_TrMRF]”, the entries for the “folding stability dG unfold” value in data set [1], in data set [2] and in data set [3] were 3.18 ± 0.962 kJ/mol, 3.29 ± 0.46 kJ/mol and 3.71 ± 1.13 kJ/mol, respectively.
On to “SMKVKIKIEVYKPENKLIVKVYFPEIGKEIVFEFDSLEGLFEKIKKELGLKEENIEIVEVKVKEVDPSELSA [r9_909_TrMRF]”, for which the “folding stability dG unfold” value in data set [1] was determined as 9.21 ± 0.753 kJ/mol; in data set [2] it was 9.23 ± 0.669 kJ/mol; in data set [3] it was 8.05 ± 0.201 kJ/mol.
For “SMKVKTYTFKIKVDGKEIEVTVEELEDGELLVTIKIKENGKEKTIVVSREELEELLKALLPPGAEIEKVESA [r9_384_TrROS_Hall]”, the “folding stability dG unfold” value in data set [1] came to 13.9 ± 0.414 kJ/mol; in data set [2], 12.5 ± 0.544 kJ/mol; in data set [3], 14.6 ± 0.23 kJ/mol.
Taken in the same sequence, the figures for “SMKVTVSVTYNPETQTLELRFTVYERDPNGNWVPTASFPITLPVTIPAPPVPVVEVPEDATLPEDVALADSA [r9_888_TrMRF]” were 20.9 ± 1.38 kJ/mol, 15.2 ± 0.753 kJ/mol and 21.5 ± 0.879 kJ/mol.
The like results for “SMLIVAEGDTVTVELIATYTVVERDPDDPNRYTLRAFPLPLTFTVDPNDPEALRRFLEAAPPGFTPVIVGSA [r9_476_TrMRF]” were, in that order, 13.3 ± 0.544 kJ/mol, 11 ± 0.385 kJ/mol and 14.4 ± 0.163 kJ/mol.
Take “SMLSEMPPEELAERIARELGLVGAEVEAVRVGDVLLVPLRLRDPVRDEVRLLVLLVVPEDDGRVLLTDLSSA [r9_1042_TrMRF]”: the “folding stability dG unfold” value is 9.04 ± 0.381 kJ/mol in data set [1], 6.09 ± 0.113 kJ/mol in data set [2] and 10.5 ± 0.121 kJ/mol in data set [3].
Take “SMMKVKVRITFEDGEEVEIEIEMSREELKNKIEELIKELAEKEGKEVKEVKIEIVDEKTNETYTFTIKVKSA [r9_1193_TrROS_Hall]”: the results for the “folding stability dG unfold” value in data set [1], in data set [2] and in data set [3] were 15.3 ± 1.26 kJ/mol, 17.3 ± 0.795 kJ/mol and 16.4 ± 0.368 kJ/mol, respectively.
“SMPEKVTFPFNIPLEEYSLEEIKEAVRERLEKEGYKVLKPDLFPEQEKLAKEAPPEAELPLLVEALVVPGSA [r9_1163_TrMRF]”: the “folding stability dG unfold” value was 0.182 ± 1.17 kJ/mol in data set [1], 1.72 ± 0.326 kJ/mol in data set [2] and -0.795 ± 1.05 kJ/mol in data set [3].
Regarding “SMPEPLVLRVRVRDPENPEPVLEFELVIPPDGGVLVLARHPDRVEVREMPLEEAIDLLLSLPFEIEEVEGSA [r9_470_TrMRF]”, the “folding stability dG unfold” value is 13.1 ± 0.586 kJ/mol in data set [1], 11.9 ± 0.285 kJ/mol in data set [2] and 13.9 ± 0.356 kJ/mol in data set [3].
Take “SMPEVETVTLTLTLVDEETGEEVTIEITATRVDGYLVLTMKVEVTVNGKKYTIEMTIVVKPGEEITLTLESA [r9_1015_TrROS_Hall]”: the “folding stability dG unfold” value is above 25.1 kJ/mol in data set [1], 16.7 ± 1.38 kJ/mol in data set [2] and 24.5 ± 1.55 kJ/mol in data set [3].
Taken in the same sequence, the figures for “SMPKTIELEIDEDLPEEEVRARLLAQGFEEIEFHELEDPEVRRVTATRPEDDETVVVTVRPPPVPPDAPGSA [r9_1090_JUSTAS]” were 9.53 ± 0.753 kJ/mol, 9.97 ± 0.402 kJ/mol and 9.59 ± 0.331 kJ/mol.
In the case of “SMPLKVTVEVYEPGGNPLGSKTYEVEPGETLTFTFPRPVKGRVTITDPNADNPQTVTGDPATGTLTFPLVSA [r9_272_JUSTAS]”, the “folding stability dG unfold” value in data set [1] stood at 3.59 ± 0.289 kJ/mol; in data set [2] it was 2.46 ± 0.234 kJ/mol; in data set [3] it was 3.8 ± 0.36 kJ/mol.
The like results for “SMPLSEEEARALAEALAAEVAAAAAAAGVAGVEVPVEISRTEEGGWTITLTVTLHAGAAPVGVRPVVVEVAS [r1_364_JUSTAS]” were, in that order, 6.66 ± 0.339 kJ/mol, 4.97 ± 0.113 kJ/mol and 7.56 ± 0.109 kJ/mol.
Taken in the same sequence, the figures for “SMPMTVEEFLEANPDVILIRLPNEKVIFINPEEEKAFVLLPETGEVLVIDATLEEVLELVPEFGAEILDESA [r9_721_TrMRF]” were 9.79 ± 0.218 kJ/mol, 8.37 ± 0.364 kJ/mol and 10.7 ± 0.105 kJ/mol.
Taken in the same sequence, the figures for “SMPNTIEEIRFTFTLPDDTPVESEVDPDGKVTGTYPDGLKIEATLEPDSGKLTVKVTFPDGLPAEATIDLSA [r9_99_TrMRF]” were 7.09 ± 0.372 kJ/mol, 6.68 ± 0.377 kJ/mol and 7.46 ± 0.176 kJ/mol.
Regarding “SMREITVTLPSEELAEELREAAEALGVEEVEVSRLPEDRLEIRIKTNSDPESVIQALKDLAEKRGLEVAASA [r9_1003_JUSTAS]”, the “folding stability dG unfold” value was 6.72 ± 0.356 kJ/mol in data set [1], 7.22 ± 0.31 kJ/mol in data set [2] and 6.94 ± 0.36 kJ/mol in data set [3].
The like results for “SMRIVTEDGQELTIVLPKVPPNMTPEQLRKALEEAGVEVEEITFDEETGEVTVKIRFKDAEKAEEALKKASA [r9_1154_TrROS_Hall]” were, in that order, 5.06 ± 0.586 kJ/mol, 6.31 ± 0.247 kJ/mol and 4 ± 0.502 kJ/mol.
Regarding “SMRVRPDGYAVVIEVRVTEDAGPPPPPFEAIRDPETDRVTVVAGATPEEIVAFAEFPGVEVERIEVIPLLSA [r9_827_TrMRF]”, the figures for the “folding stability dG unfold” value in data set [1], in data set [2] and in data set [3] were 2.39 ± 0.414 kJ/mol, 1 ± 0.418 kJ/mol and 2.83 ± 0.36 kJ/mol, respectively.
On to “SMSLTIPEELIEAIKKALEELEPGEEVTITYNLPDGSVITVKVVGKGEVTITVYSSPDSQTQTYTFEIKESA [r9_132_JUSTAS]”, for which the “folding stability dG unfold” value in data set [1] came to 13.6 ± 0.289 kJ/mol; in data set [2], 13.2 ± 0.255 kJ/mol; in data set [3] it was 13.86 ± 0.0962 kJ/mol.
Consider “SMSPEIVEKIRKFLEEKGYSFTVERIPETGKVIINIDVRGNGKTRRVNIVFDENDPEKGIDLIKEIIESGSA [r9_42_TrMRF]”, for which the “folding stability dG unfold” value in data set [1] was found to be 17.6 ± 0.356 kJ/mol; in data set [2], 14.7 ± 0.418 kJ/mol; in data set [3] it was 18.8 ± 0.318 kJ/mol.
The like results for “SMTEELVIDFPDGVKATVRRFGDGEVTITIDWPTDNPELRKKGGIKALVDAIAKELGLDPSKVKVYTRNASA [r9_401_TrMRF]” were, in that order, 15.7 ± 0.46 kJ/mol, 12.7 ± 0.36 kJ/mol and 17.2 ± 0.364 kJ/mol.
Taken in the same sequence, the figures for “SMTKTIPVTIEVDPSLSEEEIEALVEKVKEEIKEKAEAEGGKVKVTVTIEPDPNKPVVHGTITITKPKKLSA [r9_1161_JUSTAS]” were 0.691 ± 0.544 kJ/mol, 2.92 ± 0.205 kJ/mol and -2.09 ± 0.753 kJ/mol.
As for “SMTLIVRVEVENENGEKIEKEVEVEVEPGETIEELLKKLNLSEEEVKKVKIEVYVIKDGKLEKKEFTLEKSA [r9_755_TrROS_Hall]”, the “folding stability dG unfold” value in data set [1] turned out to be 9.59 ± 1.46 kJ/mol; in data set [2] it was 5.41 ± 0.837 kJ/mol; in data set [3] it was 10.9 ± 0.322 kJ/mol.
“SMTLPLLFVFPVNSPEELEKARKLAEEEVKELAEELGVKVKIEKVEYFVNPEGDYVLIRAYVTVTSPEEESA [r9_105_TrMRF]”: the “folding stability dG unfold” value in data set [1] was found to be 15.7 ± 0.36 kJ/mol; in data set [2], 13.3 ± 0.226 kJ/mol; in data set [3], 17 ± 0.418 kJ/mol.
Consider “SMTLTIEVDPNDPAKVKALIDSTPPDTTVTLVFPQEDGSKPVKTITVKPPLEKPISPENMTPKNVAARKKSA [r9_1103_JUSTAS]”, for which the figures for the “folding stability dG unfold” value in data set [1], in data set [2] and in data set [3] were 0.494 ± 0.753 kJ/mol, -3.27 ± 2.89 kJ/mol and 2.01 ± 0.414 kJ/mol, respectively.
On to “SMTPEEEAKRKAEEEAEKLKEEIKKKLKEEGVPKNVTFKFERDIEITLTDENGNVIGTRKIKIKFTVPLPSA [r9_494_JUSTAS]”, for which the “folding stability dG unfold” value is 7.73 ± 1.63 kJ/mol in data set [1], 8.97 ± 1.21 kJ/mol in data set [2] and 7.5 ± 0.544 kJ/mol in data set [3].
On to “SMTVKIELEVEIEVPETPEELRKLAEALAEELGIEEVKVVEIEYDPETKTVRVKVEITVKLPPPPPEEEESA [r9_918_TrROS_Hall]”, for which the “folding stability dG unfold” value came to 13.1 ± 0.879 kJ/mol in data set [1], 13 ± 0.586 kJ/mol in data set [2] and 12.1 ± 1.05 kJ/mol in data set [3].
Take “SMTVSATAVPFGDRLVVTVTVTVDPTLFPDRPPGPAVWERVARELARELGIDSVTLAPLPDDTFVALFDDSA [r9_883_TrMRF]”: the “folding stability dG unfold” value turned out to be 10.4 ± 0.351 kJ/mol in data set [1], 10.1 ± 0.289 kJ/mol in data set [2] and 10.3 ± 0.167 kJ/mol in data set [3].
In the case of “SMTVTLPDGTTVETSVSTEKLPNGTVVTTTTTTFTTPDGTVVPSTTVSVSPAPPTELPFTVLYRPEGSLLSA [r9_1168_JUSTAS]”, the entries for the “folding stability dG unfold” value in data set [1], in data set [2] and in data set [3] were 0.0265 ± 0.347 kJ/mol, 0.326 ± 0.0628 kJ/mol and -0.512 ± 0.669 kJ/mol, respectively.
The like results for “SMVEVLPDGTVVLAGELPPNVSIEEFLNSLPGLEIASVEFEPDPETGVTHFVFVVTPDGRVYVGSVPLGKSA [r9_238_TrMRF]” were, in that order, 9.39 ± 0.234 kJ/mol, 5.23 ± 0.167 kJ/mol and 11 ± 0.172 kJ/mol.
Taken in the same sequence, the figures for “SMVFVEIFYDPIKKKKYIKIVIFLPPNDPEKIKELAEKIKKEIEKFFEELGLKVDKIEVFVFTFPPDFPLSA [r9_117_TrMRF]” were 19.2 ± 0.92 kJ/mol, 14.1 ± 0.962 kJ/mol and 20.9 ± 0.28 kJ/mol.
On to “SMVKIYAAPNVPPEQREAIERLVKRILENPDIPIDPETIGKLIKEEAGNPELTIDRIEILPLVPPGVAEKSA [r9_620_TrMRF]”, for which the “folding stability dG unfold” value in data set [1] was found to be 3.32 ± 0.414 kJ/mol; in data set [2], 3.3 ± 0.268 kJ/mol; in data set [3], 3.75 ± 0.343 kJ/mol.
Taken in the same sequence, the figures for “SMVLELPAKDLKLEVNEDGTLKLTIKLENGKKVTFTFPAGDKITKIEVLSPDKVKIIFEKKPLKDLKTFLSA [r9_501_TrMRF]” were 6.74 ± 0.795 kJ/mol, 4.6 ± 0.197 kJ/mol and 7.38 ± 0.31 kJ/mol.

Source of the values: the supplement of paper PMC12764529.
